We go through 20 sequences from the Immune Epitope Database (IEDB).

Targets include HLA-A*33:01; HLA-A*68:01; HLA-A*31:01; HLA-A*03:01; HLA-A*11:01.
Holding throughout (experiment): IEDB peptide-MHC binding, purified MHC/competitive/radioactivity; filed as Kd, often an IC50 or EC50 that approximates it; ≥ and ≤ were set here for values at or beyond the usual limits of such assays
Setting [1] is: source organism: Vaccinia virus WR.
[2] abbreviates: source organism: SARS coronavirus Tor2.
Setting [3] is: source organism: Lymphocytic choriomeningitis virus (strain Armstrong).
Where [4] appears, read: source organism: SARS coronavirus ZJ0301.
Where [5] appears, read: source organism: Mammarenavirus guanaritoense.

AQYKCVTIK: the Kd (as a rule, the constant that tells how readily two partners part at equilibrium) with HLA-A*33:01 (setting [1]) worked out at 10200 nM; in the test with HLA-A*68:01 (setting [1]) it was 2180 nM; in the test with HLA-A*31:01 (setting [1]), 666 nM; with HLA-A*03:01 (setting [1]) it was 15.7 nM; with HLA-A*11:01 (setting [1]), 37.4 nM.
With DLLNVTYNIK, the Kd with HLA-A*33:01 (setting [1]) was determined as 1110 nM; with HLA-A*68:01 (setting [1]), 1670 nM; with HLA-A*31:01 (setting [1]), 15200 nM; with HLA-A*03:01 (setting [1]), 367 nM; in the test with HLA-A*11:01 (setting [1]), 302 nM.
As to NLCTHSFRK, the Kd with HLA-A*33:01 (setting [2]) was 9700 nM; with HLA-A*68:01 (setting [2]) it was not below 24400 nM; with HLA-A*31:01 (setting [2]), 13600 nM; in the test with HLA-A*03:01 (setting [2]), 2430 nM; with HLA-A*11:01 (setting [2]), 7900 nM.
With LLMHLVSLYK, the Kd worked out at 15800 nM with HLA-A*33:01 (setting [1]); 17.5 nM in the test with HLA-A*68:01 (setting [1]); 85.1 nM in the test with HLA-A*31:01 (setting [1]); 1.22 nM in the test with HLA-A*03:01 (setting [1]); 0.379 nM in the test with HLA-A*11:01 (setting [1]).
Consider KIAPGIADIR, for which the dissociation constant (Kd) with HLA-A*33:01 (setting [1]) was not below 53900 nM; with HLA-A*68:01 (setting [1]), 5400 nM; with HLA-A*31:01 (setting [1]), 355 nM; with HLA-A*03:01 (setting [1]), 1660 nM; in the test with HLA-A*11:01 (setting [1]), 4510 nM.
Taken in the same sequence, the figures for AFNDDGIYIR were 3210 nM, 1690 nM, 618 nM, not below 70100 nM and 18100 nM.
As to NFLRSIAMLK, the equilibrium dissociation constant (Kd) in the test with HLA-A*33:01 (setting [1]) is 70 nM; with HLA-A*68:01 (setting [1]), 272 nM; with HLA-A*31:01 (setting [1]), 9.91 nM; with HLA-A*03:01 (setting [1]) it was 74.6 nM; with HLA-A*11:01 (setting [1]) it was 316 nM.
Take DTVWEVQGYK: the Kd came out at 1680 nM in the test with HLA-A*33:01 (setting [2]); 0.881 nM with HLA-A*68:01 (setting [2]); 7500 nM with HLA-A*31:01 (setting [2]); 58.4 nM with HLA-A*03:01 (setting [2]); 74.6 nM with HLA-A*11:01 (setting [2]).
In the case of KSSSIDVDK, the Kd with HLA-A*33:01 (setting [1]) is not below 77700 nM; with HLA-A*68:01 (setting [1]) it was 8590 nM; with HLA-A*31:01 (setting [1]), 17700 nM; in the test with HLA-A*03:01 (setting [1]), 14200 nM; with HLA-A*11:01 (setting [1]) it was 161 nM.
Consider QFKQDSKYSH, for which the Kd with HLA-A*33:01 (setting [3]) was 2910 nM; with HLA-A*68:01 (setting [3]) it was not below 70100 nM; with HLA-A*31:01 (setting [3]), 13000 nM; in the test with HLA-A*03:01 (setting [3]) it was not below 70000 nM; with HLA-A*11:01 (setting [3]), not below 69700 nM.
As for VTIKYSNDNR, the dissociation constant Kd with HLA-A*33:01 (setting [1]) came to 6710 nM; in the test with HLA-A*68:01 (setting [1]) it was 2.33 nM; with HLA-A*31:01 (setting [1]) it was 402 nM; with HLA-A*03:01 (setting [1]), 10300 nM; with HLA-A*11:01 (setting [1]) it was 53.1 nM.
Taken in the same sequence, the figures for LFTSTNDKIK were not below 55200 nM, 531 nM, not below 65600 nM, not below 24900 nM and 915 nM.
As to GIEFADNDR, the dissociation constant (Kd) in the test with HLA-A*33:01 (setting [1]) worked out at 6540 nM; with HLA-A*68:01 (setting [1]), 762 nM; with HLA-A*31:01 (setting [1]), 7550 nM; in the test with HLA-A*03:01 (setting [1]), 2420 nM; with HLA-A*11:01 (setting [1]) it was 1740 nM.
With NLLVQYGAK, the Kd with HLA-A*33:01 (setting [1]) was not below 22300 nM; with HLA-A*68:01 (setting [1]), 2490 nM; with HLA-A*31:01 (setting [1]), not below 20800 nM; in the test with HLA-A*03:01 (setting [1]) it was 274 nM; with HLA-A*11:01 (setting [1]), 12600 nM.
In the case of WFSQRGGSYK, the Kd was found to be 114 nM with HLA-A*33:01 (setting [2]); 142 nM with HLA-A*68:01 (setting [2]); 178 nM in the test with HLA-A*31:01 (setting [2]); 190 nM in the test with HLA-A*03:01 (setting [2]); 152 nM in the test with HLA-A*11:01 (setting [2]).
With LLNSNALLR, the Kd was 6980 nM with HLA-A*33:01 (setting [4]); 687 nM with HLA-A*68:01 (setting [4]); 148 nM with HLA-A*31:01 (setting [4]); 14.7 nM with HLA-A*03:01 (setting [4]); 222 nM in the test with HLA-A*11:01 (setting [4]).
As to KIEEIEKVEK, the Kd is not below 47000 nM with HLA-A*33:01 (setting [1]); 417 nM in the test with HLA-A*68:01 (setting [1]); 9010 nM in the test with HLA-A*31:01 (setting [1]); 1520 nM with HLA-A*03:01 (setting [1]); 709 nM with HLA-A*11:01 (setting [1]).
Taken in the same sequence, the figures for LLSCIRNASK were 16700 nM, 195 nM, 822 nM, 66.2 nM and 29.3 nM.
Regarding ACNKIKGKK, the dissociation constant Kd is 664 nM in the test with HLA-A*33:01 (setting [5]); 1010 nM with HLA-A*68:01 (setting [5]); 1840 nM in the test with HLA-A*31:01 (setting [5]); 1390 nM with HLA-A*03:01 (setting [5]); 19000 nM with HLA-A*11:01 (setting [5]).
As for EFIRIIRPDY, the dissociation constant Kd in the test with HLA-A*33:01 (setting [1]) is 934 nM; with HLA-A*68:01 (setting [1]), 12200 nM; in the test with HLA-A*31:01 (setting [1]) it was 13700 nM; with HLA-A*03:01 (setting [1]), not below 21400 nM; with HLA-A*11:01 (setting [1]) it was not below 69800 nM.
